Where no end group is shown, it is not given here.
How the values were obtained:
Pan T cells = assay: Primary T cell stimulation assay with K562/OKT3 +/- PD-L1 (IL-2, IFN-gamma, proliferation); format: cell-based, human; set-up: IL-2 release, K562/OKT3 (No PD-L1), CD80-IgV Fc (effector), 1 nM / IL-2 release, K562/OKT3 (No PD-L1), CD80-IgV Fc (effector), 10 nM / IL-2 release, K562/OKT3 (No PD-L1), CD80-IgV Fc (effector), 100 nM / IL-2 release, K562/OKT3/PD-L1, CD80-IgV Fc (inert), 1 nM / IL-2 release, K562/OKT3/PD-L1, CD80-IgV Fc (inert), 10 nM / IL-2 release, K562/OKT3/PD-L1, CD80-IgV Fc (inert), 100 nM: unit not given here; details: 72 hr; for IL-2 release, K562/OKT3 (No PD-L1), CD80-IgV Fc (effector), 1 nM / IL-2 release, K562/OKT3 (No PD-L1), CD80-IgV Fc (effector), 10 nM / IL-2 release, K562/OKT3 (No PD-L1), CD80-IgV Fc (effector), 100 nM: Pan T cells + K562/OKT3 (no PD-L1), effector Fc format (controls as labelled); for IL-2 release, K562/OKT3/PD-L1, CD80-IgV Fc (inert), 1 nM / IL-2 release, K562/OKT3/PD-L1, CD80-IgV Fc (inert), 10 nM / IL-2 release, K562/OKT3/PD-L1, CD80-IgV Fc (inert), 100 nM: Pan T cells + K562/OKT3/PD-L1, inert Fc format (controls as labelled)
Procedure: IFN-gamma, IL-2 and proliferation were determined after 72 hr. incubation.

CD28 [1] = target: T1, CD28 (Homo sapiens, UniProt P10747); assay: Jurkat/IL2 + K562/OKT3 (no PD-L1) reporter assay of CD80 ECD-Fc (effector); format: cell-based; set-up: host or cells: Jurkat cells expressing an IL-2-luciferase reporter; details: aAPC without PD-L1
Procedure: The bioactivity of the generated molecules also was assessed using a Jurkat report assay as described in Examples 9 to assess CD28 costimulation of the molecules.

huCTLA4 = huCTLA4 (Homo sapiens, UniProt P16410); assay: Flow binding to CHO cells stably expressing CTLA4; set-up: huCTLA4 and huPD-L1, full-length mammalian surface expression constructs were generated; expressed in transfected cells; host or cells: CHO cells, lentiviral transduction, sorted to >98% purity; details: for CTLA4 MFI at 33.3 nM: CHO cells stably expressing CTLA4
Procedure: (§1) Binding of selected immunomodulatory fusion proteins to cognate binding partners was assessed. […] Cells were sorted in a Bio-Rad S3 Cell Sorter (Bio-Rad Corp., USA) to >98% purity. Jurkat/IL2 reporter cells, which endogenously express CD28, were used to detect binding to CD28.
(§2) For staining and analysis by flow cytometry, 100,000 cells of appropriate transfected cells were plated in 96-well round bottom plates. Cells were spun down and resuspended in staining buffer (phosphate buffered saline (PBS), 1% bovine serum albumin (BSA), and 0.1% sodium azide) for 20 minutes to block non-specific binding. […] Primary staining was performed on ice for 45 minutes, before washing cells in staining buffer twice. Phycoerythrin (PE)-conjugated anti-human Fc (Jackson ImmunoResearch, USA) was diluted 1:150, added to cells and incubated another 30 minutes on ice. Cells were then washed twice with 150 μL/well stain buffer, fixed in 2% formaldehyde/PBS, and analyzed on Intellicyt flow cytometer (Intellicyt Corp., USA). PE Mean Fluorescence Intensity (MFI) was calculated for each cell type with FlowJo Version 10 software (FlowJo LLC, USA).
(§3) Binding assays were carried out to assess the specificity and affinity of multivalent proteins to cell-expressed CTLA-4, CD28, and PD-L1 counter structures.
(§4) The EC50 for binding also was determined.

huPD-L1 = huPD-L1 (Homo sapiens, UniProt Q9NZQ7); assay: Flow binding to CHO cells stably expressing PD-L1; set-up: huCTLA4 and huPD-L1, full-length mammalian surface expression constructs were generated; expressed in transfected cells; host or cells: CHO cells, lentiviral transduction, sorted to >98% purity; details: for PD-L1 MFI at 33.3 nM: CHO cells stably expressing PD-L1; for PD-L1 Fold change to WT CD80: MFI at 33.3 nM relative to CD80 WT IgV-Fc
Procedure: as §1, §2, §3, §4

CD28 [2] = target: T1, CD28; assay: Flow binding to Jurkat/IL2 reporter cells (CD28); set-up: host or cells: Jurkat cells expressing an IL-2-luciferase reporter; details: for CD28 MFI at 33.3 nM: Jurkats (CD28); for CD28 Fold change to WT CD80: MFI at 33.3 nM relative to CD80 WT IgV-Fc
Procedure: as §1, §2, §3, §4

CD28 [3] = target: T1, CD28; assay: Jurkat/IL2 + CHO/OKT3 +/- PD-L1 reporter assay: PD-L1-dependent CD28 costimulation; format: cell-based; set-up: host or cells: Jurkat cells expressing an IL-2-luciferase reporter
Procedure: Jurkat cells were then plated at 50 μL/well for a total of 100,000 cells per well.
To each well, 25 μL of test protein was added to the Jurkat cells. […] The Jurkat cells with test or control proteins were incubated for 15 minutes at room temperature. CHO-derived artificial antigen presenting cells (aAPC) displaying transduced cell surface anti-CD3 single chain Fv (OKT3) (i.e., no PD-L1), or OKT3 and PD-L1 (i.e., +PD-L1), were brought to 0.8×10^6 cells/mL, and 25 μL of cells were added to each well, bringing the final volume of each well to 100 μL. […] Jurkat cells and CHO cells were incubated for 5 hours at 37 degrees Celsius in a humidified 5% CO2 incubation chamber. Plates were then removed from the incubator and acclimated to room temperature for 15 minutes. 100 μL of a cell lysis and luciferase substrate solution (BioGlo luciferase reagent, Promega) were added to each well and the plates were incubated on an orbital shaker for 10 minutes. Luminescence was measured with a 1 second per well integration time using a BioTek Cytation luminometer, and a relative luminescence value (RLU) was determined for each test sample.

[4] = Table E22, Jurkat/IL2 + CHO/OKT3/PD-L1, 5.0 nM
[5] = Table E22, Jurkat/IL2 + CHO/OKT3/PD-L1
[6] = Table E20, MFI at 33.3 nM relative to CD80 WT IgV-Fc
[7] = Table E20, ratio of MFI at 33.3 nM
[8] = Table E14, 33.3 nM, listed as CD80 WT IgV-Fc = 1.0
[9] = Table E15, CHO/OKT3/PD-L1, 5.0 nM

huCTLA4, sequence (P16410 36-223): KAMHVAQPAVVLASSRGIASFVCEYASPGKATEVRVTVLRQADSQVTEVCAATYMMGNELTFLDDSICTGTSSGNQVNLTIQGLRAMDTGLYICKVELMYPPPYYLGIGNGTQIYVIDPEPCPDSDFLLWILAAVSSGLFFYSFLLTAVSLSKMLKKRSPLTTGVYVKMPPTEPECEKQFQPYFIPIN
huPD-L1, sequence (Q9NZQ7 19-290): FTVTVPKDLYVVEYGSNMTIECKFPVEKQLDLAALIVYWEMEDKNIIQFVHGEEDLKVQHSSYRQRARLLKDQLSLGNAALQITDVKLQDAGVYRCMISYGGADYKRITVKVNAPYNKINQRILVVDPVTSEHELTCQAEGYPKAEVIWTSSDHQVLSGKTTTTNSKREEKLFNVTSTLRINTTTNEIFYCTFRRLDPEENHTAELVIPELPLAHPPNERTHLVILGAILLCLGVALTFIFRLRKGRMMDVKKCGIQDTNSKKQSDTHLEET

Row | Substance | IL-2 release, K562/OKT3 (No PD-L1), CD80-IgV Fc (effector), 1 nM (Pan T cells) | IL-2 release, K562/OKT3 (No PD-L1), CD80-IgV Fc (effector), 10 nM (Pan T cells) | IL-2 release, K562/OKT3 (No PD-L1), CD80-IgV Fc (effector), 100 nM (Pan T cells) | CD28 MFI at 33.3 nM (CD28 [2]; Table E20, 33.3 nM) | CD28 Fold change to WT CD80 (CD28 [2]; Table E20) [fold] | Fold Increase over WT CD80-IgV-Fe (CD28 [3]; [4]) [fold] | Relative Luciferase Units (RLU), CD80 Conc 5.0 nM (CD28 [3]; [5]) [RLU] | CTLA4 MFI at 33.3 nM (huCTLA4; Table E20, 33.3 nM) | CTLA4 Fold change to WT CD80 (huCTLA4; [6]) [fold] | PD-L1 MFI at 33.3 nM (huPD-L1; Table E20, 33.3 nM) | PD-L1 Fold change to WT CD80 (huPD-L1; Table E20) [fold] | Ratio of PDL1:CD28 (huPD-L1; [7]) | other results
1 | WT CD80 ECD-Fc (effector) | 11434 | 20185 | 23118 | – | – | – | – | – | – | – | – | – | IL-2 release, K562/OKT3/PD-L1, CD80-IgV Fc (inert), 1 nM (Pan T cells): 507; IL-2 release, K562/OKT3/PD-L1, CD80-IgV Fc (inert), 10 nM (Pan T cells): 3114; IL-2 release, K562/OKT3/PD-L1, CD80-IgV Fc (inert), 100 nM (Pan T cells): 8393
2 | WT CD80 IgV-Fc (effector) | 7167 | 7123 | 6203 | – | – | – | – | – | – | – | – | – | –
3 | CD80 (E35D/D46E/M47V/V68M/D90G/K93E) ECD-Fc: variant full CD80 ECD fused to effector human IgG1 Fc (SEQ ID NO:1527) | – | – | – | – | – | – | – | – | – | – | – | – | Relative Luminescence at 98 pM (CD28 [1]): 949 RLU; Relative Luminescence at 391 pM (CD28 [1]): 939 RLU; Relative Luminescence at 1563 pM (CD28 [1]): 1022 RLU; Relative Luminescence at 6250 pM (CD28 [1]): 1213 RLU; Relative Luminescence at 25000 pM (CD28 [1]): 1558 RLU; Relative Luminescence at 100000 pM (CD28 [1]): 2046 RLU; CHO/CTLA4 MFI at 66.7 nM (huCTLA4; 66.7 nM): 24566; EC50 (huCTLA4; flow binding): 10.5 nM; CHO/PD-L1 MFI at 66.7 nM (huPD-L1): 287
4 | CD80 (S21P/L70Q/D90G/I118V/T120S/T130A) ECD-Fc: variant full CD80 ECD fused to effector human IgG1 Fc (SEQ ID NO:1527) | – | – | – | – | – | – | – | – | – | – | – | – | Jurkat/CD28 MFI at 66.7 nM (CD28 [2]; 66.7 nM): 282; EC50 (CD28 [2]; flow binding, read-out: Jurkat/CD28 EC50): > 200 nM; Relative Luminescence at 98 pM (CD28 [1]): 1042 RLU; Relative Luminescence at 391 pM (CD28 [1]): 993 RLU; Relative Luminescence at 1563 pM (CD28 [1]): 1049 RLU; Relative Luminescence at 6250 pM (CD28 [1]): 1203 RLU; Relative Luminescence at 25000 pM (CD28 [1]): 1730 RLU; Relative Luminescence at 100000 pM (CD28 [1]): 2197 RLU; CHO/PD-L1 MFI at 66.7 nM (huPD-L1): 103
5 | Inert Fc Control | 7040 | 6335 | 5512 | – | – | – | – | – | – | – | – | – | IL-2 release, K562/OKT3/PD-L1, CD80-IgV Fc (inert), 1 nM (Pan T cells): <LOD; IL-2 release, K562/OKT3/PD-L1, CD80-IgV Fc (inert), 10 nM (Pan T cells): 143; IL-2 release, K562/OKT3/PD-L1, CD80-IgV Fc (inert), 100 nM (Pan T cells): <LOD
6 | A26E/E35D/V68M/A71G/D90G | – | – | – | 2102 | 47.9 | 2.34 | 912 | 23286 | 17.1 | 26510 | 608.0 | 12.6 | –
7 | deltaE10-A98: variant CD80 IgV-Fc, IgV SEQ ID NO:545 (VIHVTKEVKEVTLSVKAD; not fully specified) | – | – | – | – | – | – | – | – | – | – | – | – | CD28 Fold change to WT (CD28 [2]; [8]): 0.4; CD28 MFI at 33.3 nM (CD28 [2]; Table E14, 33.3 nM): 15; Fold Increase over WT CD80-IgV-Fe (CD28 [3]; [9]): 0.3; Relative Luciferase Units (RLU), CD80-Fe Cone 5.0 nM (CD28 [3]; [9]): 137 RLU; CTLA4 Fold change to WT CD80 (huCTLA4; [8]): 0.1; CTLA4 MFI at 33.3 nM (huCTLA4; Table E14, 33.3 nM): 125; PD-L1 Fold change to WT (huPD-L1; [8]): 0.5; PD-L1 MFI at 33.3 nM (huPD-L1; Table E14, 33.3 nM): 45; Ratio of PDL1:CD28 (huPD-L1; Table E14, MFI at 33.3 nM): 3
8 | H18Y/A26E/E35D/M47L/D90G | – | – | – | 1379 | 31.4 | 2.37 | 925 | 19736 | 14.5 | 12698 | 291.2 | 9.2 | –
9 | A26E/E35D/M47L/V68M/A71G/D90G | – | – | – | 2211 | 50.4 | 2.86 | 1117 | 21749 | 16.0 | 30232 | 693.4 | 13.7 | –
